Measured values from US20240360183A1 (SHANGHAI PUYOU BIOMEDICAL, published 2024).

B1: CF-31 (SEQ ID NO: 48) (peptide)
chain: SQWAPLDHLESDEWGAFEDEDFNNGDVEELDPEERDDEDLFQKDVLVAKADDEEWDNTVLLMILVCETPYGCYVLHQKGRMCSAFLCC
B2: CF-29 (SEQ ID NO: 46) (peptide)
chain: SELDFWDNWKDRQADLPAASDDEDFENDLAEVDHEDPLVDGNEWDGDEVEFELEEQKTVLLMILVCETPYGCYVLHQKGRMCSAFLCC
B3: CF-30 (SEQ ID NO: 47) (peptide)
chain: SDADEFDDDNSVWGWEDDEVEPNDAFQPLGDVRANEELDEKDHKLDEEADLQWEFELTVLLMILVCETPYGCYVLHQKGRMCSAFLCC
B4: CF-11 (SEQ ID NO: 31) (peptide)
chain: SEKKQPVDLGLLEEDDEFEEFPAEDWAGLDEDEDAHVWEDNWDDDNVEDDFSNQLRATVLLMILVVETPYGVYVLHQKGRMVSAFLVV
B5: CF-40 (SEQ ID NO: 53) (peptide)
chain: SEKKQPVDLGLLEEDDEFEEFPAEDWAGLDEDEDAHVWEDNWDDDNVTSDFSNQLRATVLLMILVCETPYGCYVLHQKGRMCSAFLCC
B6: CF-39 (SEQ ID NO: 52) (peptide)
chain: SEKKQPVDLGLLEEDDEFEEFPAEDWAGLDEDESAHVWEDNWDDDNVTSDFSNQLRATVLLMILVCETPYGCYVLHQKGRMCSAFLCC
B7: CF-38 (SEQ ID NO: 51) (peptide)
chain: STKKQPVDLGLLEEDDEFEEFPAESWAGLDEDESAHVWEDNWDDDNVTSDFSNQLRATVLLMILVCETPYGCYVLHQKGRMCSAFLCC
B8: CF-10 (SEQ ID NO: 30) (peptide)
chain: SEKKQPVDLGLLEEDDEFEEFPAEDWAGLDEDEDAHVWEDNWDDDNVEDDFSNQLRATVLLMILVCETPYGCYVLHQKGRMCSAFLCA
B9: CF-22 (SEQ ID NO: 36) (peptide)
chain: SEKKQPVDLGLLEEDDEFEEFPAEDWAGLDEDEDAHVWEDNWDDDNVEDDFSNQLRATVLLMILVVETPYGAYVLHQKGRMASAFLVV
B10: CF-25 (SEQ ID NO: 39) (peptide)
chain: SEKKQPVDLGLLEEDDEFEEFPAEDWAGLDEDEDAHVWEDNWDDDNVEDDFSNQLRATVLLMILVVETPYGVYVLHQKGRMASAFLAV
B11: CF-24 (SEQ ID NO: 38) (peptide)
chain: SEKKQPVDLGLLEEDDEFEEFPAEDWAGLDEDEDAHVWEDNWDDDNVEDDFSNQLRATVLLMILVVETPYGAYVLHQKGRMVSAFLVA
B12: CF-04 (SEQ ID NO: 29) (peptide)
chain: SEKKQPVDLGLLEEDDEFEEFPAEDWAGLDEDEDAHVWEDNWDDDNVEDDFSNQLRATVLLMILVAETPYGAYVLHQKGRMASAFLAA
B13: CF-28 (SEQ ID NO: 45) (peptide)
chain: SEFEDANKEQGEVPNDDVSDELPKLLDDDEDELRGALFFQWHDWEEAEDNDWDVEDATVLLMILVCETPYGCYVLHQKGRMCSAFLCC
B14: CF-43 (SEQ ID NO: 54) (peptide)
chain: SEKKQPVDLGLLEEDDEFEEFPAEDWAGLDEDEDAHVWEDNWDDDNVTSDFSNQLRATVLLMILVCETPYGCYVLHQKGRMCS

How the values were obtained:
BSA = BSA (UniProt P02769 25-607); experiment: cell-based or functional assay
BSA, sequence (P02769 25-607 limits assumed): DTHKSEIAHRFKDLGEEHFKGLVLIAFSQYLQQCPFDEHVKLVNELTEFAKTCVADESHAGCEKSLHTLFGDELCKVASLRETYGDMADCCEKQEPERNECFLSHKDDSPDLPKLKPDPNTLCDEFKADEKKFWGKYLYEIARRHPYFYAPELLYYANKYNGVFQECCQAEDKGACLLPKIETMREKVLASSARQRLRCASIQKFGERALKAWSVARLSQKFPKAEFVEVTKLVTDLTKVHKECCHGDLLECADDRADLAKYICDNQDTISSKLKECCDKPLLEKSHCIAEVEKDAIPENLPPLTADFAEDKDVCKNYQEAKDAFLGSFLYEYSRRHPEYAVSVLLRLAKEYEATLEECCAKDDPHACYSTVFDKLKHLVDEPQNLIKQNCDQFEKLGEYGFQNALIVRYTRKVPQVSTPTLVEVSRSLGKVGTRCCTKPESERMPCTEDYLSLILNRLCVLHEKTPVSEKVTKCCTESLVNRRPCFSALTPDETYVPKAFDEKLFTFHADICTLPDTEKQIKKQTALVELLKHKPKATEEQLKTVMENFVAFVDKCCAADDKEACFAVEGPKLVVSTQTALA

oxidized HSA protein = oxidized HSA protein (UniProt P02768 25-609, oxidized with 8 mM NaClO in the dark for 30 min (which residues are oxidized is not stated)); experiment: cell-based or functional assay
oxidized HSA protein, sequence (P02768 25-609): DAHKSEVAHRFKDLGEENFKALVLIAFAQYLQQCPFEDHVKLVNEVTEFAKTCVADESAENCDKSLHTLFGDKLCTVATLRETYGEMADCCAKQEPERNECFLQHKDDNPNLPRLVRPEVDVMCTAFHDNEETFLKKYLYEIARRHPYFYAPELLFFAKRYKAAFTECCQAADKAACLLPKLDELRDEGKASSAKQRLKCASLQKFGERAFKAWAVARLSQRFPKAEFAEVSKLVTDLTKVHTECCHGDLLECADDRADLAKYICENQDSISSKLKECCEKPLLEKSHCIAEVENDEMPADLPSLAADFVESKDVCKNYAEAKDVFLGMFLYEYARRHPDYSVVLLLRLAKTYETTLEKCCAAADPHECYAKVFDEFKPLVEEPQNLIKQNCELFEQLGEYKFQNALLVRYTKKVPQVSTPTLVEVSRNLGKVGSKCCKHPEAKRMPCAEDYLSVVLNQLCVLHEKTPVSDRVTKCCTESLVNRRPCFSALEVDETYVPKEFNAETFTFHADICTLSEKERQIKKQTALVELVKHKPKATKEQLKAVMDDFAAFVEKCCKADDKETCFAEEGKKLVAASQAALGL

| Binder | IC50 (µM) for inhibiting thermal aggregation of BSA (BSA) | IC50 (µM) for cellular ROS level induced by DAMP (oxidized HSA protein) |
| --- | --- | --- |
| B1 | 12.8 µM |  |
| B2 | 13.8 µM |  |
| B3 | 21.3 µM |  |
| B4 | ~7 µM |  |
| B5 | 12 µM | 5.87 µM |
| B6 | 10.5 µM | 3.91 µM |
| B7 | 13.8 µM | 4.12 µM |
| B8 | 13.8 µM |  |
| B9 | 16.9 µM |  |
| B10 | 21.5 µM |  |
| B11 | 17.6 µM |  |
| B12 | ~10.2 µM |  |
| B13 | 7.48 µM |  |
| B14 | 6.77 µM | 6.13 µM |
